Test results as given in US20100233689A1.

Assays:
[1] = target: endogenous MISRII of the mouse ovarian cancer cell line MOVCAR7 (mouse) (UniProt Q8K592); assay: cell-based or functional assay
[2] = target: rat MISRII receptor (MIS type II receptor), transiently expressed in COS7 cells (rat) (UniProt Q62893); assay: cell-based or functional assay
Chain of rat MISRII receptor (MIS type II receptor), transiently expressed in COS7 cells (rat) (Q62893 18-557): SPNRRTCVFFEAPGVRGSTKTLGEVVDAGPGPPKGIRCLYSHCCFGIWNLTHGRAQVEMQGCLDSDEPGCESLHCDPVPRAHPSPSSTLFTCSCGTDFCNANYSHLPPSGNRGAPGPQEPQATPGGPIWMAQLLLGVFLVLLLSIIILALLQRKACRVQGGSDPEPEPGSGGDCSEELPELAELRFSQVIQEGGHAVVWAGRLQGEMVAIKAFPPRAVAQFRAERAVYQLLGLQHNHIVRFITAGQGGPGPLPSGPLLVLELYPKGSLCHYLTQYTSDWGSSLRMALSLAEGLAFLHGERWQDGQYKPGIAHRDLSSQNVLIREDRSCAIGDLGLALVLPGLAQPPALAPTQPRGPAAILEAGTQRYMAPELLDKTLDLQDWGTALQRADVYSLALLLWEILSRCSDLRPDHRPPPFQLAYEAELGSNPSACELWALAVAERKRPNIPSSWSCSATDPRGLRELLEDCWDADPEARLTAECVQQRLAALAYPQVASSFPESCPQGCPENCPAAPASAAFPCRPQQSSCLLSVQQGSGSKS

Chain of endogenous MISRII of the mouse ovarian cancer cell line MOVCAR7 (mouse) (Q8K592 16-568): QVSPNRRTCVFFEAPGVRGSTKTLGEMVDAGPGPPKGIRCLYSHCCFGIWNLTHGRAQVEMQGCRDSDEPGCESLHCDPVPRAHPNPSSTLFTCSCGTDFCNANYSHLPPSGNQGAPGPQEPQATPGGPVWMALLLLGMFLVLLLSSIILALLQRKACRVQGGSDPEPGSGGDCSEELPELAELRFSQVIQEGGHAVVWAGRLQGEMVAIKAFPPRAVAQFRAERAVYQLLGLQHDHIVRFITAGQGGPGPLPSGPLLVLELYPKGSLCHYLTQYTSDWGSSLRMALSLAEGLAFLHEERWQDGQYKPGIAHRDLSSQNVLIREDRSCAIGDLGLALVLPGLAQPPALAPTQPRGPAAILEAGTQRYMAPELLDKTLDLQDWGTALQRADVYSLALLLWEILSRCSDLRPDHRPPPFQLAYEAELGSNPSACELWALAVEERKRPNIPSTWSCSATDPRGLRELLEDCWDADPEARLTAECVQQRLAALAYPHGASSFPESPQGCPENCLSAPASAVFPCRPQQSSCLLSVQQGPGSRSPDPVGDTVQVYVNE

- BRE-luciferase activity in MOVCAR7 cells, fold increase over untreated cells, 24 h [1]: 2 fold
- BRE-luciferase reporter expression in MISRII-transfected COS7 cells, fold induction, 24 h [2]: > 10 fold
Substance: Recombinant human Mullerian Inhibiting Substance (MIS) (from UniProt P03971 25-560) (ligand)
